Reference: paper PMC10843261 (Molecular cell, 2023)

Target: SARS-CoV-2 nsp12 (SARS-CoV-2, UniProt P0DTD1)
Experiment: cryo-EM structure

B1: SARS-CoV-2 nsp9 (natural protein)
chain: NNELSPVALRQMSCAAGTTQTACTDDNALAYYNTTKGGRFVLALLSDLQDLKWARFPKSDGTGTIYTELEPPCRFVTDTPKGPKVKYLYFIKGLNNLNRGMVLGSLAATVRLQ
B1: binds.

B2: RNAylated-nsp9 (20mer RNA) (natural protein)
chain: B1 chain
B2: binds.
